Series [1] in a line: melting temperature (DSF); higher = more thermostable. Put shortly:
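Enzymes made in E. coli C41(DE3) were nickel-bead purified and cut free with SUMO protease before testing. Differential scanning fluorimetry gave each melting temperature. For this, 5 μL 5X Sypro Orange was added to 45 μL enzyme (0 to 0.3 mg/mL) in sealed PCR plates, and a Bio-Rad CFX96 read fluorescence from 25 °C over 250 cycles of 0.3 °C each, ramping at 0.3 °C/s.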

The nature of series [2]: purified protein yield per well (BCA); higher = higher soluble expression. The method, boiled down: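 Purified protein yield per well is reported, as measured by the Pierce Rapid Gold BCA kit. The enzymes came from E. coli C41(DE3) autoinduction cultures of 2 mL with 100 µg/mL kanamycin, held at 37 °C for 2 h and 18 °C for 40 h, then lysed and purified on Ni-charged magnetic beads with SUMO protease release. The detection threshold is 25 ug (0.1 mg/mL), and lower values are under it.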

Series [3] in a line: PET hydrolysis, aromatic products released after 48 h (umol product/mg enzyme); higher = more PET depolymerization activity. Put shortly: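 Candidate enzymes, made tagless by SUMO cleavage and purified on nickel beads, were added at 5 μg (50 μL) to 3.5 mg of either amorphous PET film or crystalline PET powder in 450 μL buffer. The sealed plates stood unshaken for 48 h at 40 or 60 °C. Activity on PET is the aromatic product found in the supernatant per mg enzyme, read at 260 and 280 nm against buffer blanks.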

The mark [4] stands for this setting: substrate: cryPow, 40 °C, pH 5.5.
The mark [5] stands for this setting: substrate: cryPow, 40 °C, pH 6.5.
Setting [6] is: substrate: cryPow, 40 °C, pH 7.5.
[7] abbreviates: substrate: cryPow, 40 °C, pH 8.5.
Setting [8] is: substrate: cryPow, 60 °C, pH 5.5.
[9] abbreviates: substrate: cryPow, 60 °C, pH 6.5.
Where [10] appears, read: substrate: cryPow, 60 °C, pH 7.5.
The mark [11] stands for this setting: substrate: cryPow, 60 °C, pH 8.5.
[12] abbreviates: substrate: aFilm, 40 °C, pH 5.5.
Setting [13] is: substrate: aFilm, 40 °C, pH 6.5.
[14] abbreviates: substrate: aFilm, 40 °C, pH 7.5.
[15] abbreviates: substrate: aFilm, 60 °C, pH 5.5.
Where [16] appears, read: substrate: aFilm, 60 °C, pH 6.5.
Setting [17] is: substrate: aFilm, 60 °C, pH 7.5.
The mark [18] stands for this setting: substrate: cryPow, 40 °C, pH 4.5.
[19] abbreviates: substrate: cryPow, 60 °C, pH 4.5.

± gives the standard deviation of the averaged measurements. A value given as a limit tells only on which side of the number the result lay.

We go through 5 sequences from the supplement of paper PMC12455559.

“ADNPYQRGPAPTAASISADTGPFATATTVAEGTGFGGATIYYPTDTSQGTFGAIGMLPGWTAPWSAYAWLGPRLASQGFVVIGVDTNDPNDYPAARATQVLAALDHLTESSAVRDRVDPDRLAVAGHSMGGGGSLEAALSRPSLKAVYGIEPYDDITSDFSNLTVPTFIQAGQDDTLVTPSYLESLYATLPSTSEHAYLEIAGADHMFVGSPNVILARTLISWMKIFVDDDTRYTQFLCPLSDDSGVSQYRNTCPLTPGGSTGSPTATAPSPPASSSNPPGTPSSPAPTDGTCRVTYTTNAWDSGLTASVTIANTGTTASTGWSLAFTLPDGQTITSGWNATYSPSSGQVTATGVSHNATIPAGESINIGFQATHTGDTGAPTTFALNGQTCTIT [DP021]” registered a melting temperature in series [1] of 47.5 C. In addition, the “purified protein yield per well” value in series [2] was 170 µg. For the same sequence, the PET hydrolysis in series [3] (setting [4]) was 5; in series [3] (setting [5]), below 3; in series [3] (setting [6]), below 3; in series [3] (setting [7]) it was below 3; in series [3] (setting [8]), below 3; in series [3] (setting [9]) it was below 3. Besides, the PET hydrolysis in series [3] (setting [10]) and in series [3] (setting [11]) was below 3 in each case.
For “ADNPYQRGPAPTNTSIEATRGTYAVSTKTISALSARGFGGGTIYYPTSTADGTFGVVAISPGYTASQSTIAWLGPRLASFGFVVVTIDTTTRYDQPTSRGSQLLAALDQAIGDSTVGPRIDATRQAVVGHSMGGGGTLEAAKTRRSLEAAVPLTGWNLDKTWPEVEAATLVIGAQNDTVAPTTSHSIPFYNSLSGAERKAYLELRGASHFAPVTSNTTIAKHTLSWLKRYVDDDTRYEQFISPGPSTAIGSPVSDYRVN [DP022]”, in series [1], the melting temperature turned out to be 35.8 C. Further, the “purified protein yield per well” value in series [2] came out at 215 µg. Also, the PET hydrolysis in series [3] (setting [12]) is below 3; in series [3] (setting [13]), below 3; in series [3] (setting [14]), below 3; in series [3] (substrate: aFilm, 40 °C, pH 8.5) it was below 3; in series [3] (setting [15]), below 3; in series [3] (setting [16]), below 3. The PET hydrolysis was below 3 in series [3] (setting [17]); below 3 in series [3] (substrate: aFilm, 60 °C, pH 8.5); below 3 in series [3] (setting [4]); below 3 in series [3] (setting [5]); below 3 in series [3] (setting [6]); below 3 in series [3] (setting [7]). For the same sequence, the PET hydrolysis in series [3] (setting [8]), in series [3] (setting [9]), in series [3] (setting [10]) and in series [3] (setting [11]) was below 3 each time.
The sequence “ADNPYQRGPDPSRTSVATETGPFANASVSVPTGYGFNGGRIYYPTDSSQGTFGAIAISPGYTALFSAELAWMGPWLASHGFVVIGIETNSRNDFDTARGTQLLAALDYLTQQSPVRDRVDPNRLAVAGHSMGGGGALSAAVRRSSLKAAVGIAPYSPSSNLANDRVPTMVFSGQADTVVTPSYAIGLYNSLPTTTESVYLEVAGADHGFMVGRSNPVMIRTMLPFVKMFIDNDTRYSQFLCPLLDSSGVVTYRSTCPLLPTTPTTPPVNPTTPPVNPTVSPTGAPGSASEIVGVQSGRCVDVPNASRTNGTRVQLYDCNRQSQQSWTYTSGRQLRVYGDMCLDAAGSGNGAAVQIYACHSQTNQQWNVNSNGTISGVQSGRCLDVWSTANGAQVQLYDCHGQTNQRFNVMPLAR [TEP092]” came in with a melting temperature in series [1] of 60.4 C. Also, the “purified protein yield per well” value in series [2] is 154 µg. In addition, the PET hydrolysis is 5 in series [3] (setting [18]); 10 in series [3] (setting [4]); 8 in series [3] (setting [5]); 3 in series [3] (setting [6]); below 3 in series [3] (setting [19]); below 3 in series [3] (setting [8]). The PET hydrolysis in series [3] (setting [9]) and in series [3] (setting [10]) was below 3 in each case.
For the sequence “ADNPYQRGPDPTAASIAAVTGPFATASVTVPRGNGFGGGVIYYPTDTSQGTFGGIAISPGLNGTWPGIAWLGPRLASQGFVVFGIETNNLNDSPTSRGTQLLAALDYLTGSSSVRTRVDAGRLAVAGHSMGGGGALDAALRRPSLRATIGNAPHLPSGSLANDRVPTLIYAMQNDTLVPPSRLTSLYNTVPATTERGYLEITGAGHNYIGQPSTILARTMIPWLKIFVDDDARYSQFLCPLTDRSGISQYQSSCPLITTSPTTGPTAQPTTAAPTTTPTTPPVGGPCEATHRTVNSWSGGYQGEVTVRAGSAAINGWTVSWTLGSGQTINQVWGGALTASGTAATVRNETWNGPVAAGASTTFGYIATGNAPTQPLACSAR [ESM060]”, the melting temperature in series [1] stood at 58.6 C. Also, the “purified protein yield per well” value in series [2] came to 279 µg. For the same sequence, the PET hydrolysis in series [3] (substrate: aFilm, 40 °C, pH 4.5) is below 3; in series [3] (setting [12]) it was below 3; in series [3] (setting [13]) it was 1.5 ± 2.1; in series [3] (setting [14]) it was 8 ± 1.4; in series [3] (substrate: aFilm, 60 °C, pH 4.5), below 3; in series [3] (setting [15]), below 3. Moreover, the PET hydrolysis in series [3] (setting [16]) is below 3; in series [3] (setting [17]), below 3; in series [3] (setting [18]), below 3; in series [3] (setting [4]) it was 11.5 ± 2.1; in series [3] (setting [5]), 24.5 ± 2.1; in series [3] (setting [6]), 38 ± 1.4. Besides, the PET hydrolysis was below 3 in series [3] (setting [19]), below 3 in series [3] (setting [8]), 5.5 ± 0.71 in series [3] (setting [9]) and 12.5 ± 0.71 in series [3] (setting [10]).
For “ADNPYQRGPDPTAASVTAVNGPFANTSVSVPTGYGFNGGRIYYPTDTSQGTFGAIAISPGYTALFSAELAWMGPWLASHGFVVIGIETNSRNDFDTARGTQLLAALDYLTQQSPVRDRVDPNRLAVAGHSMGGGGALSAATRRPSLKAVVGIAPYSPSSNLANDRVPTMIFAGQADTVVTPSYATGLYNSLPTTTESTYLEVAGADHGFMVGRSNPVLVRTMLPFVKMFLDNDARYSQFLCPLLDNSGVVTYRSTCPLLPSTPTSPTPTTTPTSTPTPTPTVTPTTPPGSASQIVGTQSGRCVDVPNASRTNGTRVHLWDCNRQANQAWTYTANKQLQVYGTMCLDAAGTGNGAAVQIYSCHGQTNQQWNVNSNGTISSVQSGRCLDVWSTANGAQVQLYDCHGQTNQQFRLTALN [ESM130]”, the melting temperature in series [1] was found to be 58 C. In addition, the “purified protein yield per well” value in series [2] was determined as 138 µg. Besides, the PET hydrolysis in series [3] (setting [18]) was below 3; in series [3] (setting [4]) it was 6; in series [3] (setting [5]), 3; in series [3] (setting [6]), below 3; in series [3] (setting [19]), below 3; in series [3] (setting [8]), below 3. Further, the PET hydrolysis in series [3] (setting [9]) and in series [3] (setting [10]) was below 3 each time.
